Source: publication PMC13403234, “Engineering Cathepsin S Selective Chemical Probes and Antibody−Drug Conjugates through Substrate Profiling with Unnatural Amino Acids” (Journal of Medicinal Chemistry, 2026)
*1 amine or outer side, *2 acyl side, *3 side chain or, on linkers, in order; H or OH if unused. Where a SMILES comes first, the peptide text is derived from it. [ ]: non-standard residue; d: D form. The star is where a group is joined. Dolaproine = CO[C@@H]([C@@H]1CCCN1)[C@@H](C)C(=O)O; Dil = CC[C@H](C)[C@H](NC)[C@@H](CC(=O)O)OC; Met(O2) = CS(=O)(=O)CC[C@H](N)C(=O)O; PABC = O=C(OCc1ccc(N[*:1])cc1)[*:2]; X1 = C[C@@H](N*)[C@@H](O)c1ccccc1; tBuAla = CC(C)(C)C[C@H](N)C(=O)O; Cit = NC(=O)NCCC[C@H](N)C(=O)O; NMeV = CN[C@H](C(=O)O)C(C)C; Cbz = O=C(OCc1ccccc1)*

What was measured:
MDA-MB-231 cells = assay: MTS cell viability assay, MDA-MB-231; type: cell-based, human; conditions: TROP-2-positive MDA-MB-231 cells
Method: The BT-474 (ATCC HTB-20, RRID: CVCL_0179), MCF-7 (ATCC HTB-22, RRID: CVCL_0031), and MDA-MB-231 (ATCC HTB-26, RRID: CVCL_0062) breast cancer cell lines were cultured at 37 °C in a humidified incubator with 5% CO2. Cells were maintained in Dulbecco’s Modified Eagle Medium (DMEM; Gibco, Cat. No. 41965−039) supplemented with 10% fetal bovine serum (FBS; Gibco, Cat. No. A5256801), L-glutamine, sodium pyruvate, penicillin […], and streptomycin (0.1 mg/mL). All cell lines were routinely tested for mycoplasma contamination (every 12−16 weeks) using a PCR-based detection kit.
Cell viability was evaluated using the MTS assay (CellTiter 96 AQueous One Solution Cell Proliferation Assay, Promega, Cat. No. G358B) according to the manufacturer’s instructions. BT-474 cells were seeded at a density of 20,000 cells/well, while MCF-7 and MDA-MB-231 cells were seeded at 5,000 cells/well in 96-well plates and allowed to adhere overnight. Peptide prodrugs, free MMAE (used as a control), or ADCs were added in serial dilutions. For peptide prodrugs and MMAE, concentrations ranged from 0.001 to 10 μM; for ADCs, from 0.03 to 3 μM. […] Absorbance was measured at 490 nm. Background absorbance (blank wells) was subtracted from all readings, and cell viability was calculated as a percentage relative to untreated controls. […]

[1] = ADC stability in mouse serum (free MMAE by LC-MS/MS); type: in vitro ADME; conditions: anti-TROP-2 sacituzumab-based ADCs, up to 1 week, 37 °C
Method: Selected ADCs were incubated at 0.1 mg/mL in 100 μL of plasma samples for 24, 48, 72, and 168 h at 37 °C. The samples were then frozen at −80 °C and subjected to LC-MS/MS analysis. Stock solutions of MMAE and MMAE-d 8 standards were prepared in DMSO at a concentration of 10 mM and stored at −20 °C until use. Calibration solutions were prepared by diluting the stock solutions with methanol/ethanol (50:50, v/v). Mouse and human serum were purchased from Sigma-Aldrich. The concentration of MMAE in serum samples was determined based on the method described by Mak et al., with minor modifications. Briefly, 10 μL of serum was spiked with 5 μL of 25 nM MMAE-d 8 as an internal standard (IS), followed by the addition of 35 μL of ice-cold ethanol/methanol (50:50, v/v). The mixture was vortexed for 5 min and then incubated at − 20 °C for 30 min to precipitate proteins. The samples were subsequently centrifuged for 30 min at 20,000 × g and 4 °C. The supernatant was collected and subjected to LC-MS analysis. A Waters Acquity Premier UPLC system (Massachusetts, USA), consisting of a binary pump, thermostatic column holder, and refrigerated sample manager, was used for chromatographic separation. Separation was performed on an Acquity UPLC BEH C18 column (2.1 × 50 mm, 1.7 μm) using 0.1% formic acid in water as mobile phase A and 0.1% formic acid in methanol as mobile phase B. The column temperature and sample manager temperature were maintained at 45 and 15 °C, respectively. The injection volume was 1 μL, and the flow rate was 0.3 mL/min. The gradient started at 20% B, increased to 90% B over 3 min, and was held at 90% B for 2 min. Finally, the column was equilibrated back to 20% B for 1 min. The total run time was 6 min. MS analysis was performed using a Waters Xevo TQ-Absolute XR triple quadrupole mass spectrometer (Massachusetts, USA) equipped with an electrospray ionization interface. Samples were analyzed in positive multiple reaction monitoring (MRM) mode. […] MMAE and MMAE-d8 were detected based on their characteristic MRM transitions and retention times. […]

Cathepsin S = target: T1, Cathepsin S (Homo sapiens, UniProt P25774); assay: Prodrug cleavage / MMAE release by LC-MS, cathepsin S; type: biochemical; conditions: prodrug 50 μM, pH 5.5, 37 °C, 0-120 min
T1 construct: made in house
Method: (§1) Cleavage assays were conducted at 37 °C in 1 mL reaction volumes using acetate buffer composed of 100 mM sodium acetate (pH 5.5), 100 mM NaCl, 1 mM EDTA, and 5 mM DTT. Buffers were prepared at room temperature and equilibrated before use. Prodrugs were initially dissolved in DMSO at a stock concentration of 10 mM, then diluted into the reaction buffer to a final concentration of 50 μM, maintaining a DMSO concentration below 0.5% (v/v). Reactions were initiated by the addition of recombinant cathepsin and carried out in glass LC-MS vials incubated at 37 °C. At specified time points (0, 5, 30, 60, and 120 min), aliquots were taken and directly injected into the LC-MS system without further processing. Quantification of MMAE release was based on absorbance at 220 nm. The area under the MMAE peak was integrated, and the amount of released MMAE was plotted as a function of time. Each time point was measured in triplicate, and results are presented as mean ± standard deviation (SD). A standard curve was prepared using free MMAE at concentrations of 1, 5, 10, 20, and 50 μM to enable accurate quantification of MMAE released from the prodrugs.

cathepsins B, L, and V = assay: Prodrug cleavage / MMAE release by LC-MS, other cathepsins; type: biochemical, human; conditions: prodrug 50 μM, pH 5.5, 37 °C
Method: as §1

T1 sequence (P25774 115-331): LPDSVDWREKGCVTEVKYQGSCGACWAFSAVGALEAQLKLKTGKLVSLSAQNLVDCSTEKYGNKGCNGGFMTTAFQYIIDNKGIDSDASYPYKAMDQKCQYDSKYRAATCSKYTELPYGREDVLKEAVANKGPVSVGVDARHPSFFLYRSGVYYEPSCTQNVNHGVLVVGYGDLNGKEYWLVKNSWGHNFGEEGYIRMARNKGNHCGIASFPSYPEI

Compound	cytotoxicity of sacituzumab (anti-TROP-2) ADCs (MDA-MB-231 cells)	payload release [1]	cleavage / free MMAE release by cathepsin S (Cathepsin S)	cleavage / free MMAE release by other cathepsins (cathepsins B, L, and V)
313 anti-TROP-2 ADC: sacituzumab (anti-TROP-2) ADC with Phe(F5)-Cit-Lys(2ClZ)-Glu(Me) linker, PABC spacer and MMAE payload	moderate toxicity	approximately 6%		
CC[C@H](C)[C@@H]([C@@H](CC(=O)N1CCC[C@H]1[C@H](OC)[C@@H](C)C(=O)N[C@H](C)[C@@H](O)c1ccccc1)OC)N(C)C(=O)[C@@H](NC(=O)[C@H](C(C)C)N(C)C(=O)OCc1ccc(NC(=O)[C@H](CCCNC(N)=O)NC(=O)[C@@H](NC(=O)OCc2ccccc2)C(C)C)cc1)C(C)C [compound 300, Cbz-Val-Cit-PABC-MMAE, reference compound] (Cbz-V[Cit][PABC][NMeV]V[Dil][Dolaproine]-X1; N-terminus and C-terminus assumed)			efficiently cleaved by cathepsins S, B, L, and V	efficiently cleaved by cathepsins S, B, L, and V
314 anti-TROP-2 ADC: sacituzumab (anti-TROP-2) ADC with Met(O2)-Cit-NptGly-Glu(Me) linker, PABC spacer and MMAE payload	markedly more potent	approximately 6%		
CC[C@H](C)[C@@H]([C@@H](CC(=O)N1CCC[C@H]1[C@H](OC)[C@@H](C)C(=O)N[C@H](C)[C@@H](O)c1ccccc1)OC)N(C)C(=O)[C@@H](NC(=O)[C@H](C(C)C)N(C)C(=O)OCc1ccc(NC(=O)[C@H](CCC(=O)OC)NC(=O)[C@H](CC(C)(C)C)NC(=O)[C@H](CCCNC(N)=O)NC(=O)[C@H](CCS(C)(=O)=O)NC(C)=O)cc1)C(C)C [compound 314, Ac-Met(O2)-Cit-NptGly-Glu(Me)-PABC-MMAE] (Ac-[Met(O2)][Cit][tBuAla]E(OMe)[PABC][NMeV]V[Dil][Dolaproine]-X1)			also cleaved by cathepsin S	moderate cross-reactivity toward other cathepsins
ADC 300: sacituzumab (anti-TROP-2) ADC with pan-cathepsin Val-Cit linker, PABC spacer and MMAE payload		1.5%		
